Results on 2 variants are retold here after paper PMC5906670, “Structural basis of epilepsy-related ligand–receptor complex LGI1–ADAM22” (Nature Communications, 2018).

The chains are these.
B1: ADAM22 ECD-FLAG [human] / LGI1-His6 [human] (parent)
chain 1: SKRQLRRYPRNVEEETKYIELMIVNDHLMFKKHRLSVVHTNTYAKSVVNMADLIYKDQLKTRIVLVAMETWATDNKFAISENPLITLREFMKYRRDFIKEKSDAVHLFSGSQFESSRSGAAYIGGICSLLKGGGVNEFGKTDLMAVTLAQSLAHNIGIISDKRKLASGECKCEDTWSGCIMGDTGYYLPKKFTQCNIEEYHDFLNSGGGACLFNKPSKLLDPPECGNGFIETGEECDCGTPAECVLEGAECCKKCTLTQDSQCSDGLCCKKCKFQPMGTVCREAVNDCDIRETCSGNSSQCAPNIHKMDGYSCDGVQGICFGGRCKTRDRQCKYIWGQKVTASDKYCYEKLNIEGTEKGNCGKDKDTWIQCNKRDVLCGYLLCTNIGNIPRLGELDGEITSTLVVQQGRTLNCSGGHVKLEEDVDLGYVEDGTPCGPQMMCLEHRCLPVASFNFSTCLSSKEGTICSGNGVCSNELKCVCNRHWIGSDCNTYFPHNDDAKTGITLSG
chain 2: KKPAKPKCPAVCTCTKDNALCENARSIPRTVPPDVISLSFVRSGFTEISEGSFLFTPSLQLLLFTSNSFDVISDDAFIGLPHLEYLFIENNNIKSISRHTFRGLKSLIHLSLANNNLQTLPKDIFKGLDSLTNVDLRGNSFNCDCKLKWLVEWLGHTNATVEDIYCEGPPEYKKRKINSLSSKDFDCIITEFAKSQDLPYQSLSIDTFSYLNDEYVVIAQPFTGKCIFLEWDHVEKTFRNYDNITGTSTVVCKPIVIETQLYVIVAQLFGGSHIYKRDSFANKFIKIQDIEILKIRKPNDIETFKIENNWYFVVADSSKAGFTTIYKWNGNGFYSHQSLHAWYRDTDVEYLEIVRTPQTLRTPHLILSSSSQRPVIYQWNKATQLFTNQTDIPNMEDVYAVKHFSVKGDVYICLTRFIGDSKVMKWGGSSFQDIQRMPSRGSMVFQPLQINNYQYAILGSDYSFTQVYNWDAEKAKFVKFQELNVQAPRSFTHVSINKRNFLFASSFKGNTQIYKHVIVDLSA

The variants in this assay derive from B1. The assay can be described thus: pull-down. The settings on record: with LGI1-His6 [human]; Ni-NTA agarose; proteins secreted from HEK293T cells; n = 5 independent experiments; read off a plot.
Regarding chain 1 SKRQLRRYPRNVEEETKYIELMIVNDHLMFKKHRLSVVHTNTYAKSVVNMADLIYKDQLKTRIVLVAMETWATDNKFAISENPLITLREFMKYRRDFIKEKSDAVHLFSGSQFESSRSGAAYIGGICSLLKGGGVNEFGKTDLMAVTLAQSLAHNIGIISDKRKLASGECKCEDTWSGCIMGDTGAYLPKKFTQCNIEEYHDFLNSGGGACLFNKPSKLLDPPECGNGFIETGEECDCGTPAECVLEGAECCKKCTLTQDSQCSDGLCCKKCKFQPMGTVCREAVNDCDIRETCSGNSSQCAPNIHKMDGYSCDGVQGICFGGRCKTRDRQCKYIWGQKVTASDKYCYEKLNIEGTEKGNCGKDKDTWIQCNKRDVLCGYLLCTNIGNIPRLGELDGEITSTLVVQQGRTLNCSGGHVKLEEDVDLGYVEDGTPCGPQMMCLEHRCLPVASFNFSTCLSSKEGTICSGNGVCSNELKCVCNRHWIGSDCNTYFPHNDDAKTGITLSG [chain 1 Y186A], the percent of parent was 4 % of WT.

As for chain 1 SKRQLRRYPRNVEEETKYIELMIVNDHLMFKKHRLSVVHTNTYAKSVVNMADLIYKDQLKTRIVLVAMETWATDNKFAISENPLITLREFMKYRRDFIKEKSDAVHLFSGSQFESSRSGAAYIGGICSLLKGGGVNEFGKTDLMAVTLAQSLAHNIGIISDKRKLASGECKCEDTWSGCIMGATGYYLPKKFTQCNIEEYHDFLNSGGGACLFNKPSKLLDPPECGNGFIETGEECDCGTPAECVLEGAECCKKCTLTQDSQCSDGLCCKKCKFQPMGTVCREAVNDCDIRETCSGNSSQCAPNIHKMDGYSCDGVQGICFGGRCKTRDRQCKYIWGQKVTASDKYCYEKLNIEGTEKGNCGKDKDTWIQCNKRDVLCGYLLCTNIGNIPRLGELDGEITSTLVVQQGRTLNCSGGHVKLEEDVDLGYVEDGTPCGPQMMCLEHRCLPVASFNFSTCLSSKEGTICSGNGVCSNELKCVCNRHWIGSDCNTYFPHNDDAKTGITLSG [chain 1 D183A], the percent of parent was 37 % of WT.
